Consider 1 molecule from patent publication US20240148866A1 (DENALI THERAPEUTICS, published 2024).

Assay [1] concerns the target T1, biotinylated full-length human transferrin receptor (hTfR) (human, UniProt P02786 89-760, limits assumed, biotinylated (site not stated)).
T1 construct: Printed as 'biotinylated full-length hTfR', immobilized on a streptavidin chip; also called full-length hTfR; full-length receptor
In words: SPR (Biacore T200), biotinylated full-length hTfR on streptavidin chip, IgG:IDS injected, single-cycle kinetics; apparent (avid) affinity. As for the experimental part: (§1) The affinity of IgG:IDS for human transferrin receptor (hTfR) was determined by surface plasmon resonance on a Biacore™ T200 instrument using two methods, similar to previously described (Kariolis et al. 2020. Sci Transl Med 12(545):eaay1359). In Method 1, to evaluate monovalent TfR binding affinity, IgG:IDS was captured on a Protein A-coated Biacore™ Series S CM5 sensor chip and serial dilutions of the apical domain of hTfR (hTfR^apical) were injected over the captured sample. In Method 2, for evaluation of apparent hTfR binding affinity of IgG:IDS, biotinylated full-length hTfR was immobilized on a streptavidin-coated CM5 sensor chip, followed by injection of serial dilutions of IgG:IDS. For both methods, the single-cycle kinetics mode was used for sample injection (association time, 90 s; dissociation time, 600 s), and binding affinities were calculated using Biacore T200 Evaluation Software v3.0.
(Surface plasmon resonance follows binding to a sensor surface in real time, without labels.)

For assay [2], the target named is T2, Fc fusion of the 9th domain of human cation independent mannose-6-phosphate receptor (ciM6PR; Uniprot P11717) (human, UniProt P11717 1225-1363, limits assumed).
T2 construct: domain: 9th domain; It was coated on ELISA plates at 1 ug/mL
Description: ELISA: plate coated with the Fc fusion of ciM6PR domain 9, IgG:IDS titrated, detection with biotinylated anti-IDS antibody and streptavidin-HRP, A450. Here is the method:
ELISA plates were coated with an Fc fusion of the 9th domain of human cation independent mannose-6-phosphate receptor (ciM6PR; Uniprot P11717) at 1 μg/mL in PBS overnight at 4° C. The following day, the plate was washed three times with wash buffer (PBS with 0.02% Tween-20) and blocking buffer (PBS with 0.02% Tween-20 and 5% BSA) was added to each well. Blocking was carried out for 1 hour at room temperature after which the plate was washed three times, and IgG:IDS was added to the first column of the plate at a concentration of 25 nM. A 3-fold serial dilution was performed across the plate. Primary incubation of the binding reactions was carried out for one hour at room temperature. After binding, the plate was washed three times, and binding was detected using biotinylated anti-IDS antibody diluted to 0.0625 μg/mL in sample buffer. The plate was incubated with a detection antibody for one hour at room temperature and then washed three times. Streptavidin-HRP, diluted 1:50,000 in sample buffer, was then added to each well. The plate was incubated for 30 minutes at room temperature and then washed three times. The ELISA was developed using TMB reagent. The ELISA plate was read on a HighRes BioTek Synergy plate reader, where the absorbance at 450 nm was recorded.
(ELISA stands for enzyme-linked immunosorbent assay.)

Assay [3] has as its target T3, apical domain of human transferrin receptor (hTfR^apical) (human, UniProt P02786 198-378).
T3 construct: also called apical domain of hTfR
Description: SPR (Biacore T200), IgG:IDS captured on Protein A chip, hTfR apical domain injected, single-cycle kinetics. As for the experimental part: as §1

T2 sequence (P11717 1225-1363 limits assumed, one chain of several): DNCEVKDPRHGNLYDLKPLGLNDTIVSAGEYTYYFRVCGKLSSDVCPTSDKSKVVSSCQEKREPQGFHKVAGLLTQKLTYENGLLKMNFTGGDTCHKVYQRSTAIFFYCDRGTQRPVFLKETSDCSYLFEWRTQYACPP
T1 sequence (P02786 89-760 limits assumed): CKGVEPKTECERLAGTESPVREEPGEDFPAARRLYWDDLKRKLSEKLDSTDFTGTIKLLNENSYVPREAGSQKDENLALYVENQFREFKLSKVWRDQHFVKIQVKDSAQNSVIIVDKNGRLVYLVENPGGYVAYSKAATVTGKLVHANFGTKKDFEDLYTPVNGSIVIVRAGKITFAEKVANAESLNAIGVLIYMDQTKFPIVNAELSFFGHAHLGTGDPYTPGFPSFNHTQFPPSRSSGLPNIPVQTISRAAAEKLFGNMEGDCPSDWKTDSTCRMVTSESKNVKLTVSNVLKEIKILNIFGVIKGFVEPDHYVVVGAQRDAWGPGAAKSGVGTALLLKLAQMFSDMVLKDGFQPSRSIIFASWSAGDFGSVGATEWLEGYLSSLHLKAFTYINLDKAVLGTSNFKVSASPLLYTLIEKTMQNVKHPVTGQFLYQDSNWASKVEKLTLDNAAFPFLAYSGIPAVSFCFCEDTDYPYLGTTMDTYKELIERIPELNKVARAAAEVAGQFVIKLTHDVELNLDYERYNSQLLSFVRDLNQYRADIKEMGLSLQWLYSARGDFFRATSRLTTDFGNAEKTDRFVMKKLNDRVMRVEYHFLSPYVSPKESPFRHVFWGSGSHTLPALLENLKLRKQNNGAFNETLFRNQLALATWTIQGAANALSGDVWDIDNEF
T3 sequence (P02786 198-378 limits assumed): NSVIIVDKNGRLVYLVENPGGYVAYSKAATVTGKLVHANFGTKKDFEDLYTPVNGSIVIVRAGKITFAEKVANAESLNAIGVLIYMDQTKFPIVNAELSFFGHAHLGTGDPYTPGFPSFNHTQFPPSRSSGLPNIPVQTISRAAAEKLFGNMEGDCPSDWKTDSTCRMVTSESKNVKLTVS

B1: IgG:IDS fusion protein (anti-transferrin receptor antibody with an IDS enzyme linked to the C-terminus of each heavy chain) (antibody)
heavy: not shown
light: DIVMTQTPLSLSVTPGQPASISCRSSQSLVHSNGNTYLHWYLQKPGQSPQLLIYKVSNRFSGVPDRFSGSGSGTDFTLKISRVEAEDVGVYYCSQSTHVPWTFGQGTKVEIKRTVAAPSVFIFPPSDEQLKSGTASVVCLLNNFYPREAKVQWKVDNALQSGNSQESVTEQDSKDSTYSLSSTLTLSKADYEKHKVYACEVTHQGLSSPVTKSFNRGEC
modifications: formylglycine (fG) in place of the Cys in the IDS part in the form given as SEQ ID NO:18; glycans carry about 1.5-2.3 mol/mol M6P and about 15-16 mol/mol sialic acid per fusion protein
notes: Antibody-enzyme fusion with human IgG1 constant regions, expressed in ExpiCHO cells co-transfected with SUMF1
For orientation: EC50 (read off the curve) means the concentration giving half of the maximal effect. For B1, the values for the Kd in assay [1] and in assay [3] were ~0.1 nM and 2.6 nM, respectively. Also, in assay [2], the “EC50 (read off the curve)” value is ~0.08 nM.
